For series [1], the system named is Topo IV. The series is described as follows: EMSA. The note with it: Topo IV alone; stated as bound poorly; 1 mM spermidine, 30 mM potassium glutamate, 10 mM DTT, 6 mM MgCl2, 10% glycerol, pH 7.4, 15 min at RT; 4% native PAGE (plasmid: 0.8% agarose, 0.5x TAE, 4 C).
For series [2], the system named is Topo IV;XerC;XerD (Escherichia coli?;Escherichia coli?;Escherichia coli?). Put plainly: EMSA (agarose). The note with it: 50 nM XerCD; migration delay seen with 40 nM Topo IV; 1 mM spermidine, 30 mM potassium glutamate, 10 mM DTT, 6 mM MgCl2, 10% glycerol, pH 7.4, 15 min at RT; 4% native PAGE (plasmid: 0.8% agarose, 0.5x TAE, 4 C). A general note: A gel shift assay detects complexes by their altered migration in electrophoresis.

Series [3] relates to Topo IV. The series is described as follows: EMSA (agarose). The conditions noted are these: no XerCD; 200 nM Topo IV required for migration delay; 1 mM spermidine, 30 mM potassium glutamate, 10 mM DTT, 6 mM MgCl2, 10% glycerol, pH 7.4, 15 min at RT; 4% native PAGE (plasmid: 0.8% agarose, 0.5x TAE, 4 C).

pKd: −log10 of the molar value.

The record followed here is article PMC4865107.

What is called pKd is −log10 of the Kd, conventionally taken in molar units. Read a low pKd as a high Kd.

Take dif probe, 250 bp: the pKd in series [1] was < 7.00.

As to “negatively supercoiled plasmid containing dif”, the binding is 40 nM in series [2] and 200 nM in series [3].
